# Results from a protein production outcome set (Wang et al. 2014).
# Experiment: label from the status in PepcDB records
# 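Note: failed if final PepcDB status was selected cloned or expressed and not failed if soluble or beyond.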
row,Sequence,protein production
1,MDFDLWWLLAIPLVFGLGWVAARLDARQLLTEQASLPRSYFKGLNFLLNEQPDKAIDAFIEVARLDPETTELHFALGSLFRRRGETERAIRVHQNLVNRPDLPANERDHALYELGQDFLRAGLLDRAEESLRMLMEGVFAEPAKRVLLELYEVEKEWRKAIDAARELQTLQGQDYSVQIAQFCCELAQESLQRKDVSAAVEWLERALQENPKNVRATIQLGDVALGKGDTEGAIKRWRSIEQQNPAFLPLVAERLMKAYAQLGRAAEGLAWLRSKMDARLGPELLDVVYRYELDVHGIDDAVALMREQIRRQPSLMALTRLVEAEATRASEAVSHEAAAVAAPISDSALADPVEAGSNADIQRAQDLGAIRDLLQSRTRNLARYTCQECGFRARLFYWQCPGCNRWETYAPRRTEALGGSGGASM,failed
2,MDFDTIQIDYEKEETVMIGRAADKIFTRVFIFLIMTVYFWIYTVAGLVVLGIGPAFRTVTEMHMDKQWDYRLYHFKEGWQRFKRHFWQMNLHTWLFLGVGAVLAYNLYLSLSIHTLWIIFIQFIIVFALILDFSLAIFTVMLRSRYDVAFKDAIKLAIVQFFSNFTQLLTFIIGTIVLIVISLKWPGMILFLSPGIYMVGADRLSRRWYDKIDKMLGAV,failed
3,MDFECQFVCELKELAPVPALLIRTQTTMSELGSLFEAGYHDILQLLAGQGKSPSGPPFARYFGMSAGTFEVEFGFPVEGGVEGSGRVVTGLTPSGKAASSLYIGPYGEIEAVYDALMKWVDDNGFDLSGEAYEIYLDNPLEHHHHHH,failed
4,MDFKTVMQELEALGKERTKKIYISNGAHEPVFGVATGAMKPIAKKIKLNQELAEELYATGNYDAMYFAGIIADPKAMSESDFDRWIDGAYFYMLSDYVVAVTLSESNIAQDVADKWIASGDELKMSAGWSCYCWLLGNRKDNAFSESKISDMLEMVKDTIHHSPERTKSAMNNFLNTVAISYVPLHEKAVEIAKEVGIVEVKRDNKKSSLLNASESIQKELDRGRLGFKRKYVRC,not failed
5,MDFLGILCLLILATTLAGHFAHRAGIPAVIGEILVGVILGPALLNWVHLTTLVQTFSDIGVVVLMFIGGLESNLALLRKYLRPAIIVAIIGVIFPVVIMGLASRFFQFSWFESLFIGVIFSATSVSISVEVLKEFKVLDTKEGATILGAAVADDIIGVILLSIMIAMMGGQSGVAQTNLGIVLLEQVGFFIGVFIVIKWVAPYLMRLSDHLLMAASPTIMAIIICLALAWLAELVGLSGAIGAFFAGVAIAQTDYQHVVDVSIEPVGYTTFIPLFFVSVGLNMTFKGVWQSLPFIVVMTVLGVLTKLWGCGLGAKLNGFSRHSNYLVGAGMISRGEMALITAQIGFSAHLLSNDYYSDIILVIIVVTMIAPFVLKNAIHRAGQVTATHSIIEEH,failed
6,MDFLVAHFNLLRGLHILAVIAFMAGMLYLPRLFVYHTKATPGSQMDETFKVMERRLLRGIINPASIATAVFGLGLILADAQIRGWDFLLQPWMIAKLVALVGLYGFHGFLSASRKKFERGENVRSEKFWRMVNEIPFVLAIVIVMSVTTKYLNH,failed
7,MDFNDSAQAIILNVGGEKNINSLIHCSTRLRFTLNDFAKADLEKLKTVDGVLGAVIAGGQCQVIIGNDVVEMFDAVQALLGNSTQQNTARGPKQSWGKVVLDFIIGVFQPLVPAIAGGGILKAVLMLLAMFGWISDKSQTYQILNLVGGAPLYLLPILVAITTAQKLKVNPLVAVSTVGVLILPDLVAMLTKGTTLFGLHVTNVTYSSQVFPAILCVLFYALMERFFTKYSPKPIRIFFVPMMSMLITAPITLLFLGPLGYVVGEGFVSVILFLNTHLGWVATALLAGVLPFMVATGMHKPMIPYVVSTFSTVGKESLYLPASLAHNISESGTCFAITLRTKDTKLRAVALSAGISALFGITEPALYGVTLQHKRALISVITGGVIGGAYVGIAGLSGFTIVGPGLASLPMFVDKSNPANLIHALIGFGISFVVSFVIGLIIWKNDEEISSASDTGEATTTVVAEDLMAPVAGKILSLADVPDDVFSQGLIGQGIAVEPSEGSLIAPTDGTIEMVYETKHALGMRTDNGAELLFHIGLDTVQLNGKYFESHVQVGQHVQAGELLETFDVAKIKAAGYNPITMMVVTNQDSYTVAVDESNETLDNQSVMNIAKLGV,failed
8,MDFNPIDLILHLDTYLAMLVSNYGVWIYAILFLVIFCETGLVVTPFLPGDSLLFIAGAICATGGMDPWLLGGLLMVAAITGDSTNYVIGRTLGKRLFSNPDSKVFRRDYLDRTHEFYERHGGKTVTLARFLPIVRTFAPFVAGMAKMHYPRFVMFSVVGTVAWVGGLVTLGYFFGNVPFIKKNLSLLVIGIILLSLLPMILGFIRHRLQASAAKQAKAQSD,failed
9,MDFPCLWLGLLLPLVAALDFNYHRQEGMEAFLKTVAQNYSSVTHLHSIGKSVKGRNLWVLVVGRFPKEHRIGIPEFKYVANMHGDETVGRELLLHLIDYLVTSDGKDPEITNLINSTRIHIMPSMNPDGFEAVKKPDCYYSIGRENYNQYDLNRNFPDAFEYNNVSRQPETVAVMKWLKTETFVLSANLHGGALVASYPFDNGVQATGALYSRSLTPDDDVFQYLAHTYASRNPNMKKGDECKNKMNFPNGVTNGYSWYPLQGGMQDYNYIWAQCFEITLELSCCKYPREEKLPSFWNNNKASLIEYIKQVHLGVKGQVFDQNGNPLPNVIVEVQDRKHICPYRTNKYGEYYLLLLPGSYIINVTVPGHDPHITKVIIPEKSQNFSALKKDILLPFQGQLDSIPVSNPSCPMIPLYRNLPDHSAATKPSLFLFLVSLLHIFFK,not failed
10,MDGEILRDPTRRFVLQSGAAVGGGLLLSFTMSSEGQAAGDTKVNAYVRIASDGKVTIASKVPEVGQGIKTALPMLIAEELDVDWSAVTVEQAIADTKIYGRQVAGGSMATTLEYDGLRRVGATVRALLIAAAAARWNVPADSLKTEPGFVVDAAGKRRASYGELAQAAAALTPPDPKSLTLKDPKAFRIIGKSHKSQNLDAIVTGQPTYGIDVRLPGMLFAAFAKAPVYGAKVASVDLALAKAVKGVRDAFIIEGGTNLQGLLPGVAVVADSWWAARKGREALQIQWAEHPTASQSTVGFAAKAAELAAAPPHRNLHNDGDVEAALKGAAKTVSAAYSYPFIAHAALEPQNCTAHVKDGKVEIWAPTQNPESGRALVARALNVDPSAITIHLIRGGGGFGRRLMNDYMVEAAAIAAKVNAPVQLIWTREDDMQHDFYRPGGWHNLTAGLDAKGGLTAWKNHFITFGEGETFNTAAAMNATQFPCRAVANYRHDVSVMPLGFPTGFLRAPGNNAFGFVIQSFTDELALAAGKDPVAFRRELLGEPRLLGEPGKGDSFHTGRMRGVLDLVAEMSGWGRKVPKGTGLGVACHYSHLGYVAVVMQVTVKDGAVKVDKVWAAADVGRQIVNPSGADQQMQGSILDAIGSTLYQSITFENGAATNSNFGDFPLLRMADAPPVEVRYKLSDNNPTGLGEPAYPPAPAALCNAIFAATGKRIRSLPIGDQLA,failed
11,MDGHSKNHCSPVGRYFPMPLDRRFLPGWLAFLALLAICVFPLMAKAAGVPALVGRVNDYAGMISPQARSIIDQKLKALEAEDGTQVAVLTVPSLDGQPIEEFSIKVAEAWKIGQKGRDNGILFIVSKNDRAMRIEVGYGLEGRLTDLQAGRITRDVIKPAFKSGDYDKGFIDGVDAIVASVKGEYKAPKRKNDDGAPSPFLIFIILFVLFVASRFMRFFGGGGGPFGFGGPGGGFFPGGGFGGGGGSSDDGGFSGGGGDFGGGGASDNW,failed
12,MDGRRMVQGLLTASLLTSIGGDLEVLASRMDLQFQRPVYTGETLVCELTVVSADPHTDGGVALVGDVAVRRVNRDDNSGQADTAAPLEHHHHHH,failed
13,MDHAAVLALFDRDMREGARPDGPGARIERVPGVVRQVASEHGWNGVVWSGLDEASADAAIAEQQRYFAGLGREFEWKLYGHDLPEDLGRRLRAAGFTAAPEETLMVAEVADLTLDVEPPDGVRIVPVTDRAGVDLVADVHEKAFGTDSTRMRHQLLAQVTDDPDAVVAVVALAGDEPVSAARMELVPGTRFAGLWGGGTVEGERGRGIYRALVAHRAKVAADRGYRYVQVDATSQSRPVLARLGFEPLTTTTPYVSP,not failed
14,MDHDKTGCQSPPEGPKLCTNNCGFFGSAATMNMCSKCHKDMLFQQEQGAKFASAVSGTSSSSNIIKETFTAALVDIETKSVEPMTVSVQPSSVQVVAEVVAPEEAAKPKGPSRCTTCNKRVGLTGFKCRCGSLFCGTHRYADVHDCSFNYHAAAQEAIAKANPVVKAEKLDKI,failed
15,MDIDLSAFHFLRPWWLLAVPLAALLWWARRGERGAPGRDLRIAPALLPYLVLRTPGSRGPRPIDALALFLALGGVAAAGPAWQRDEPAYLDNVAPLIVALDLSASMDGADVPPTRLEAARRVLRDLAARRAAARTGLIAYAGSSHLVLPPTDDAALLDLFAQALATGLIERPGRDADGAIALAAQALAAERAGGTLLILTDGADRARMDAVRRQAQAARDMQVLVMAVGVNGIDTQALQELARAAGAALGSLTGGPDDQDWIALHAQAHFRAVQDAQSGPVHWKDAGYWLCWPLALLALLAVRRGWSVAWSAGVLVVAMAGMPQPARADALADAFLTADQQGRRAFEHGRYDAAARHFHDPNWKGRAAYQAGDYRAALAAFSTLPSAEGYFYVGNTQTRLHRYDAALAAYDRALALRPGWQPAVVNRGIVARLLAAMAQTQQDQPAEPPDRTIADRSAQAGKMSQAPVAQAGSEEAWLRNLTLSPARFLRSKFAVEDAAAGTRP,failed
16,MDIEDLQTFVAVADAGGVSAAARRLGISKSIVSRRLLRVEAELGVQLLARTTRGAALTEAGITFRDHAARASAEIDTAKETILPTGELRGRLRVAMPLTFGPTHFAPVLADMARQHPQLHIHTSYSDRFVDLIAEGFDCAIRGAYLQDSNLIAKRVGPIHGKLVASPDYIKAHGSPGTLDELVTHQALMQGTEAWQFMDGDKIVTVQPQGRFKADSATALAAAAAAGLGIAWLPDCITYGYVASGALVPIMTRYPVPPGAAYVVRPPGQHPTRKVRALTEMLTEYFKRNPDVWGLDR,failed
17,MDIKEIDQSSVITPDGQRISFILITPVNMSVLSDEVVAGRISALANILTSIENLQILCLNASQSYEKNKEHLAAQMKTETNEVLAELDRKDIEYLDDIRISMATGREFAFAVRFKKNIGRPQQEQTLKRLLLILLEAGFTARIAEEQELKGILAIYFAQDIYNDYWPDFDGEEILSPAEAKQEKSFLELIAPSIIDFRRQRYYVCGNTQRTVWAVRGYPTTTKDQTIFRELGEKDGVTLHIYTRPVGSYETNKILERAERRNRHMLNNSSRIKEKVEAESNMQDVQLLIENMHRSKEPFLHCAVFIEMAAGNDKALELLQGDVAAILNRHKILYDKLFLQQKEGMISAMPTGQNLFENQFERVLPASSVANMFPFSYSGKTDPQGMYIGRDANGSNIIVNFDQRGQDKTNGHIIILGNSGEGKSFLLKILSCIFRQSRKNLYILDPENEYKELTEALGGTYMDMMTGKYIINPLEPRLWNQEPVSELESPDTPKAFFKPLRINQHIAFLRDFFSAYKPFPTEQLDTLEIMLELLYKEFHITEETDYSRLRSSDYPILTDLYKLMTRELENYEEKAETGLVVYRKETLRELCLGLHGICTGAESVYFNGYTNIPNAKHIDFGVKDMLSTNQSLSNAMYFNILSFMSHKFLTEGDTNICCDELHELLKNRIAISYLLSFIKRGRKRGSNVILASQNVSDFFLPEIVEYTKPLLSIPTHRFLFYPGSCDTEEYKRVLGVSDSEYRVIQNPNRGHCLYSCGNERYHLHVIAPKYKKALFGTAGGALEHHHHHH,failed
18,MDIKNSEYRFSPLVIGLHWLTVILIIAVYASMELRGLAPKGALRDAMKSLHYLLGLSVLVIVVIRIGVRIQAGVKPAIQPPMPRWQATLADGMHYALYSFMLAMPLLGWLTLSAAGKPIVLFGLPVPSLIGTDVALSRQLKDVHEALATLGYVLIGLHAMAALLHHYVMRDNTVVRMLPGRRP,not failed
